Data published in the DeepSol protein solubility set.

test: soluble on expression in E. coli; label from the status in PepcDB or PDB records

| Sequence | soluble on expression in E. coli |
| --- | --- |
| MSIVLSADHKDALQEFMNISMGRAASKLATLLNLHVTISVPNIRVATEEDMRALQSYAADYYYTRQSFYGGMDGELITLMSRCGCEQVVNDLNHSKGMADGLVSIEESILDISNILSGASLKGLCQQIELKTKIQPPVIFDPTHQPLPILQWRLSLIMEINFLVEKASFSAKTIICFADKELDKVFAHLDELLM | not soluble |
| MGSDKIHHHHHHMLTASSITLQFASKPLFENVNVKFGDGNRYGLIGANGSGKSTFMKILAGELEPTAGNVSLDPGERMAWLRQDQFGYEDQRVLDVVMQGHVEMWRVMQEKDAIYMNPEASEEDYLRAAELEGKFGELGGYDAEARAGELLLGVGIPTEQHQGTMSQIAPGFKLRVLLAQALFSKPDILLLDEPTNNLDINTIRWLEQVLNESNATIVVISHDRHFLNQVCTHMADLDYGTIKVWPGNYDDYMLASSEAKARQAAANARAKDKVAELQEFVRRFSANKSKARQATSRMKMIDKIKIEDFKPSSRQNPYIRFEPEKALHRRALEVENLKFGYDAEPLFTNLGFSLEAGEKLAVIGGNGVGKSTLMKLLMGELTPAYGEIRWSENANVGYFSQDHVADFDMDLNLTDWMHQWTQAGDDEQVLRGILGRLLFSGDDVKKSVRVLSGGEKGRMLYGKLMLGRHNVLVMDEPTNHMDMESIESLNLALELFKGTLIFVSHDRQFVSSLATRILEITPQGVEFYMGNYDEYLHSKGLE | not soluble |
| MTSILNPVIRKEYSELKRPDLRGKFICASCGQHFQHNASLNRHRRLLHGNEHTCMMCDRKLNAKETIRDHMRNEHNLFQVFTCGCCNWSFSSKRQLSEHTKCIQGTGAPGDTIPIAKSCNAPGSLIQSTIQGTPPVVKTGRKRGGSLSSSSSVSTSISSRDVSGSPPPTEEEAERKVLFDNAVDTILQSKFFTYQQITEVDTWIKIIENANTLADTLQRINKTKKIKAEMPADKDVKRFKLEVE | not soluble |
| AAYEAELLGRVGLMSHLTRRLHESAKLNPHRVIYAACENPSVLKAAVSARAHGIARPIMLGDEKQIRDFAAELDLSLEGIEIVNYRSDEEKARRHHYARVFAEQNWRRGGNHTEALDKMFDPNYFGMMMVRLGDADAMITGIYSKHSYLAEVAKQTVGLQEGVGHFATMHMVSLKNGPLFLADTLINHNLSAEALVDIAVMAYEKAHCFGVKPVLAIVGFSDFGADSDADSTVEAAKAVAILHEKYPYILVDGEMRVSLALHAEKRDKQYPQNKIKGRNANVLIFPRLSAANACYQLLREADDAEEVLGPIQIGLAKPVYFADHDATVSDILNITAMAVLDSHACLI | soluble |
| MGSDKIHHHHHHMNLVEISDIDKEILMKLEYEFPFDPQPFNIISDGLKISEEELLNRVKKLLEDGIIKRIGMYVSFRAKGMDGALIAARIPQDKIEKFRKIALGIRELTHNYVRDHPKFNIWFVLKANDRDTLNENVKELLSHVESNDYVILYSKKTLKLSVKYDVIRGVSWSPNNTIRSLSKVPTAEELGINKQLLTELSYPLKISQRPFKEIAEKYKMKEDELVELIKELYDKNVIKDYGATLNGEKIGIVENGMVLLDTSNVEQACEKLALNIPEATHVVLRESNDENWKYLCYSMIHASKKETIRNVAKEISKETNSRSYMILFSLENLKPGIVI | not soluble |
| MSLTLKLFELVGADAGRPFSPFVWRTRMALAHKGLTAETIPWRFTDKAAIAPYGSEKVPVLLDGDKVVADSWAIANYLEDAYPDRPSLFGGDGGRAMARMLNWWGDLAIIGGIFPMIVADIAQRLDPEDAAYFRQSREARLKTTLEEAAASRDRAVQGFRKSLDPLRLTLKTQAFIGGAAPNYADYIVFGGFQWARVVSDFSLLQSDDPVYAWRERLLDAFGGLARATPGYPVEGHHHHHH | soluble |
| MGSNGGGGGGGKQVLWEFHATGPRNISNPSWRDLIRSSWTDPNYRRIAVSCFVQAAYLLELDRQEKRNGESALAPNWWKPFKYKLVRPLIDSRDGSIYGVLLEWDQLAALSDLIVLRPNGAPKVVLAIRGTVLKQSTVVRDLEDDFRFFTMESLRGSVRFTGALEALKSAIDKRGSNNVCIAGHSLGAGFALQVGKTLAQDGIFVECHLFNPPSVSLGMGLRKLQEKAGKVLKRYVSGSSSNATELSHPTEDGGAASEIGEEKLIKEVKRWVPNLYINSCDYICCFYADRSGVATVTAEKHDGHSGTHSKLFVIAKGPKKFLEAHGLQQWWSDDYELQLAVHDSKLMYRHLKSLYVNES | soluble |
| MADLERYLKRARGGRVVRTGFLDPEDQARLEEMARREGIRVAFFGGFPLAERKVAVLYPEEVPSVSDPVEVVLLDRPPPADLGEVLGEVEEVEEGVLAALLPEGRKALEAQGYRLLPPPEGALRPPRERVRTLVVPSLRVDAVGAKGFGVSRSYFAQGVKAGKVRLKGRPASPKDELAPGDLLFAEGLGTLRLLEVVGKTVRGNYKIKVEVER | soluble |
| MGHHHHHHSHMEWKVKIRSDGTRYITKRPVRDRILKERALKIKEERSGMTTDDDTMSEMKMGRYWSKEERKQHLVRAKEQRRRREFMMRSRLECLKESPQSGSEGKKEINIIELSHKKMMKKRNKKILDNWMTIQELMTHGAKSPDGTRVHNAFLSVTTV | not soluble |
| HRRNATSLQLSRCANIADRTGLDALGGRRHSRRCPPPQRGLAAIKPLRQHRRRPVRSHIGGNQFADLPHQVDAFVHGKTDAVMLQPRQHAAKRGLRSIVRHFFIRQYRSLIIKRRAHTPGIRQLYRIAHCLRRPVLCGEPFYGFLFESNPLRLIEAV | not soluble |
| MGSDKIHHHHHHMIQVLNLTTPETIKNYLHEALGKIEPFEQCILLDYPDHANIGDNLIWLGELLYLHNTRQSQITYNASVENFSVQEMDKCKSSCEIPIFLHGGGNLGDLWLKFQNFREYIISEYKENPIIIFPQSIYFQEEDNLIKAARIFNSHPNLTIFVRDNYSYQLATNYFSNCRIIKSPDAAFQLVNTPGIAAAYQNKSSILYHFRNDKELNLNQAGSPHTLDLPNLIVEDWASYKYESDSYKELPHNAVIQSFARVFHGWEQGKLFPDEWITRQIWKYFHPYTTAFSQSYNPESHRKAWSYMYQGVYQFKQHRLIITNRLHGHILSTLMGIPHIFLPNSYHKNEAFYEAWTYQIPFCRFVKDPEKIADTVRELIEISEIAKN | not soluble |
| MSLEGFIEGSSLTVLNRNFYFNRDNRDSTAPTYNSGKGNTNGYSEAWAHAIISKFNSGFTQGTVGFGVDAFAMIGLKLDTGDGRNGGRSSFDVLPVDNKGEARDEYTKVGGAAKVRLFDTIVKVGDVFPSTPVVASGDSRLLPESFRGVTVENTSIQGLTLQGGRLHAMSQPVSSNLNDNFVTFYGGPVNSPWIGYGGGDYSINDNWTVSVYASQLKDVWNQYYAGTSVVYPLSDDLALIGGFNYYKAVDEGKKRLGEFDNNIWSAKVGVRYGAHTLALSHQRNNGDDDFDYLRQSDSIFVDNSIQYSDFNSPKERSWMLRYDLNFTSYGIPGLTFMTRYARGSGADYSNANQFYMRTDDNGNPLDNQKRWERDVEVKYVVQTGPAKDLSFRLRQATTRATAFESDLDETRVIIEYPLSILEGHHHHHH | soluble |
| MARVRIVAKKNGPYLLEVDGKVQTALCRCGHSNNKPYCDGTHARVGFQADEKVAFEAEFAAALEHHHHHH | not soluble |
| MLNIFCPHCGELRSEEEFHAKGQAHIPRPLDPNACSDEEWGDYMFFRDNPRGLHHELWVHAAGCRKYFNVTRHTVTYEILETYLIGEQPSVVADGEKKPAVQGEPA | not soluble |
| GPGSMWKCYPLRCPAATGVFGCFKRLQDGYSAWCAAVSNQETASAKTSSRGSGAENTENLQLPIHTNPNACPRSVLVVPAGDIKDALRRQKRYDVVADVVMLDLTRGVFGGSDRSGGASEARDRLLRFLRESVRGDHMEGCSDDGEWKTQSGEGTVGQIFNGGRARWVVRVNSPEFDAARGFLDMELVGVLGDLIEGVVLPSVTANTYELVQEFIHPSHKLWAAFNTPLSVLQASAVCAQGHYRYAIVDREELAYEMQYPSVNSEKRSGSLNFSEDVEATQLKHVRSLPALHSACQVMTAAKAHGMYLFDGGFSDVSDSIGFRHDMQRCRAFGFDGRVVLRPSQIAACHEAFVPTSEEVEWAKAVQRTHCMDQYNVNGDNATSVGGDATCRRQRAALILERHAAVQWYNRNPQDDGMDMQRKGAGGNVPQGSVV | not soluble |
| MVRPRTIDRERLLDIAESIISEAGAVTISFGGLAEAAGLSKASVQSVFGTREAMMEALLERWLRKEQRAYQKKIGPQSSLRERVRRHVKITGKESSEANSRLAAVLTALVGSDATEGVMAKWYASRVGKFSAETQEERLLRIAFLAAEGAFFMRHVAGFPMSDRLWRELFHDLLDFVAEPVGGAARSAA | not soluble |
| NTKDEAYNVATQATYAVAEQQTGSGDVVAVDDNVQMSKVSTVTINVLGNDIIADGVSVEISAMSAPSKGTVKLLSDGSIQYTPAKRFKNQDSFS | not soluble |
| MSPAITRKRFIAGAVCPACSEQDKIQMWEEDGVPHRECVACGYADTLNAQGQSIPKELGTRVNQNAPKPANPKVQSVQFFPNPKLKKKPDA | not soluble |
| MGDTTFLIEFDHPAAVYSPGQNVAGKLTIRNRNALNALALKICIHGDIETLWRKFENKGRYDRHGRWYRSSEHINYTSKINVLEGIAQPWSSIENANNKIPGGVNIFPFLFQLPANLPPSFEGTHGNVRYSVHVELDRPWRMNVEAKRVFSVIPVIDLNSIPKTINPMIVSSCKHSGLFSNKEVKVKISIPKSGYIPGETIQVSALIQNHTKKPIYSIKAKLEQHVHYQAQQENSHLFPEEHCHKHCEHKTAQTTMSKVEKSCHVEFCSNSQINVPLVLPNQLVPSFRTGIIEVDYCIIVDIGENKKLRCELPITVGTIPIGVFTRPIAYSITEAPPKYENFSQIVEDSQASAPPPEYENEEHF | not soluble |
| MKIIKGAFPVLITPMDEFQEINWNGVKQNVNYFIEQKVAGIIINGSTGEFVSLSKEERFKMVETVLKEVNGRIPVIVGTAAETTKETIEFTKHAETHGADCALIINSYYCKPKEEEIYFHFKEISNAVNIPIMLYNNPFTSGVDMSTELMLRIGKDCENVTHIKESSGDIRKARDLVRQGEGAFQVFCGSEDLVMESYLVGATGWVSVAGNVVPGLVTKMYEHFQNGELEKAWEINDAILPLCEFLEGSGKYVQIVKRSMELQGQAGGPSRYPRLGLTEEEDQKLQAIISKIAAHAAV | not soluble |
| MVGIHQEVWLEVDLEFTKKMKIPVVRRDLGGGTVVITPGEHDYFIVVRQEDAPRNPSELYKKFLTPIVNVLRSYGLKADLRDQDIVVNGKKISGNGAMTHGNSIVIAGNILLSLDIDL | soluble |
| MEEDNQQDQNNQYVIYHPFFSEGCHFYFIISCTNSFIRVALKIGLIGDSQIGKTSLMVKYVEGSFDEDYIQTLGVNFMDKKIQIRNTTITFSIWDLGGQKEFINMLPLVSNDAVAILFMFDLTRKSTLNSIKEWYRQVRGFNKTAIPFLVGTKYDQFIDLSFQDQIEITQQAKKFGSAMKAPVIFCSTSHSINVQKIFKIILSKAFDLKLNLDEIVNVGEPILIYK | not soluble |
| MSKPLIFAHRGVKGTHPENTMIAFQEAERIGAHGIELDVHLSKDGELVVIHDETVDRTTNGVGLVSEKTVEELQLLDAGSYKDPSFHEAKIPTLREVFIWLSTTNLQLNIELKTDVIHYPNIEEKAVALVREYHLSNQIVFSSFNHDSVSLLAEIAPEIPRAILYDTPLTDPISEAKHREASGLHPNFQLLTKEFVQLAQEQGYVFRPYTINEYKDLQTMIDYGVDVIITDWPARAFELLS | not soluble |
